First the molecules themselves.
B1: VIB-0068909 (peptide)
peptide: DIXWS
modifications: D-aspartic acid at position 1; position 3 (X) is the non-natural residue F57 = 4-methylaniline
notes: Peptidomimetic 5-mer; X marks the non-natural residue
B2: VIB-0068870 (peptide)
peptide: [dD]IYWS-{N‑(1,3,4-thiadiazol-2-yl)amide}
notes: also called VIB-0068870-001; dIYWS*
B3: VIB-0068875 (peptide)
peptide: [dD]IYWS-{N‑(2-(4-methylpiperazin-1-yl)-2-oxoethyl)amide}
notes: also called dIYWS**
B4: VIB-0068884 (peptide)
peptide: {(1-aminocyclobutyl)N‑methanone}-[dD]IYWS
modifications: not fully specified
notes: also called *dIYWS
B5: VIB-0068914 (peptide)
peptide: [dD]IYYS
notes: also called dIYYS
B6: VIB-0068902 (peptide)
peptide: [dD]IYWS
notes: also called dIYWS
B7: VIB-0068912 (peptide)
peptide: DIXWS
modifications: D-aspartic acid at position 1; position 3 (X) is the non-natural residue F86 = 1-chloro-4-methylbenzene
notes: as for B1
B8: VIB_P44 (peptide)
peptide: PVHMS
B9: VIB_P65 (peptide)
peptide: NIWWG
B10: VIB_P47 (peptide)
peptide: GIYWS
B11: VIB_P39 (peptide)
peptide: DVWWS
B12: VIB_P60 (peptide)
peptide: GVYWS
B13: VIB_P66 (peptide)
peptide: NIWWS
B14: VIB_P43 (peptide)
peptide: DIYWS
modifications: not fully specified
notes: also called VIB_43; DIYWS
B15: VIB_P42 (peptide)
peptide: DIYWG
B16: VIB_P53 (peptide)
peptide: DVYWG
B17: VIB_P41 (peptide)
peptide: SVYWS
B18: VIB_P58 (peptide)
peptide: NFYWS
B19: VIB_P68 (peptide)
peptide: NIYWG
B20: VIB_P48 (peptide)
peptide: NVWWS
B21: VIB_P29 (peptide)
peptide: DIWWG
notes: also called VIB_29
B22: VIB_P37 (peptide)
peptide: DIHWS
B23: VIB_P49 (peptide)
peptide: PIYWS
B24: VIB_P56 (peptide)
peptide: NVWWG
B25: VIB_P63 (peptide)
peptide: NIYWS
B26: VIB_P35 (peptide)
peptide: DIFWS

*1 amine or outer side, *2 acyl side, *3 side chain or, on linkers, in order; H or OH if unused. Where a SMILES comes first, the peptide text is derived from it. Where no end group is shown, it is not given here. [ ]: non-standard residue; d: D form. The star is where a group is joined. X1 = CCn1cc(C[C@H](N[*:1])C(=O)[*:2])c2ccccc21; X3 = COc1ccc(C[C@H](N[*:1])C(=O)[*:2])cc1C; X4 = O=C([C@H](Cc1ccc(CO)cc1)N[*:1])[*:2]; Piperazinyl(4-Me) = CN1CCN(*)CC1; Ac4c = NC1(C(=O)O)CCC1

In one test the target is T1, Sushi domain 1 of the human GABA B1a receptor (human, UniProt Q9UBS5 26-96).
T1 construct: Purified recombinant protein from E. coli; also called SD1; GABABR1a-SD1
T1 sequence (Q9UBS5 26-96 limits assumed): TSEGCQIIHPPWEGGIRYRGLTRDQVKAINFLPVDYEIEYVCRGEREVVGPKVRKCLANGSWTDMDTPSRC
As to the kind of experiment: FP competition vs FITC-9mer on purified SD1.
Conditions: not given
The protocol: (§1) To screen for GABABR1a binders using unlabelled test compounds, the assay was turned into a competition assay using FITC-9mer. […] To validate this inhibitor assay, the IC50 values were determined of the 17-mer, 9-mer, 5-mer as well as those from 3 negative controls: 10-mer, scrambled 17-mer and a scrambled 9-mer (FIG. 2).
Based on structural information of DIYWS-SD1 and DIWWS-SD1 co-crystals, 48 peptides containing non-natural residues were manually designed and checked for binding to the GABABR1a SD1 in the FP assay at a concentration of 50 μM. These non-natural peptides were categorized based on the IC50 values obtained in the FP assay (Table 3). […] The listed non-natural 5-mers all share D-aspartate was on position 1 (residue position 4 of the 9-mer), L-isoleucine on position 2 (residue position 5 of the 9-mer), L-tryptophane on position 4 (residue position 7 of the 9-mer) and L-serine on position 5 (residue position 8 of the 9-mer), while position 3 is selected from the list consisting of L-tyrosine, isoethylmethyl-benzene, 6-chloro-3-methyl-1H-indole, methylcyclohexane, ethylcyclohexane, 2-naphthalene, ethylbenzene, 1,1-difluoro-4-cyclohexyl, 4-methyl-1-methoxy-2-methylbenzene, 1-chloro-4-methylbenzene, 4-methylphenyl-methanol, 3-methylbenzoic acid and 4-methylaniline.
B1: the “% inhibition 50 µM” value worked out at 44.2% and the IC50 was 88.3 µM.

Consider B2, for which the “% inhibition 50 µM” value is 34.6% and the IC50 came to 16.5 µM.

On to B3, for which the “% inhibition 50 µM” value amounted to 41.8% and the IC50 was 71.2 µM.

Turning to B4, the “% inhibition 50 µM” value turned out to be 41.5% and the 50% inhibitory concentration (IC50) was determined as 100 µM.

For the molecule B5, the “% inhibition 50 µM” value was found to be 72.4%.

Take B6: the “% inhibition 50 µM” value was determined as 76.8%.

With B7, the “% inhibition 50 µM” value was 66.2% and the IC50 is 32.7 µM.

The target of the next test is T1, Sushi domain 1 of the human GABA B1a …. As to the kind of experiment: FP competition vs FITC-9mer on purified SD1.
Conditions: not given
This is another data set of the same source. The protocol:
Next, 35 variants of the DVWWG 5-mer peptide containing natural residues were tested in the above described FP assay. The peptides were tested at a concentration of 50 μM.
(§2) To determine if the peptides of this application were able to disrupt the SD1-9-mer complex, each peptide (in single point or dose-response curve) tested was incubate with SD1 protein for 1 h at RT. After this initially incubation, FITC-9mer was added to the previous mix and incubated during 2 h at RT. The signal intensity was measure in an appropriate plate reader using the following settings: Number of flashes per well: 200; Excitation: F482-16; Dichroic filter: FLP 504; Emission A F530-40; Gain A: 738, Gain B: 736. The assay was conducted in a 384-well plate.
B8: the “% inhibition 50 µM” value was -7% and the IC50 worked out at 186 µM.

Consider B9, for which the “% inhibition 50 µM” value stood at 41.4%.

Turning to B10, the “% inhibition 50 µM” value amounted to 53.4%.

On to B11, for which the “% inhibition 50 µM” value was 85.5% and the IC50 came to 14 µM.

With B12, the “% inhibition 50 µM” value came out at 47.5%.

Regarding B13, the “% inhibition 50 µM” value was 66.4%.

Turning to B14, the “% inhibition 50 µM” value was found to be 48.6% and the IC50 was 21.2 µM.

Consider B15, for which the “% inhibition 50 µM” value was 47.9%.

As to B16, the “% inhibition 50 µM” value turned out to be 33.5%.

Turning to B17, the “% inhibition 50 µM” value amounted to 5.28%.

Consider B18, for which the “% inhibition 50 µM” value was -7%.

On to B19, for which the “% inhibition 50 µM” value came to 15.9%.

In the case of B20, the “% inhibition 50 µM” value amounted to 33.5%.

As to B21, the “% inhibition 50 µM” value came to 75% and the IC50 came out at 16.5 µM.

With B22, the “% inhibition 50 µM” value stood at 20% and the IC50 came to 35.6 µM.

Regarding B23, the “% inhibition 50 µM” value stood at 25%.

For the molecule B24, the “% inhibition 50 µM” value stood at 17.9%.

Turning to B25, the “% inhibition 50 µM” value was found to be 19.4%.

Take B26: the “% inhibition 50 µM” value was determined as 55.9%.

A further test concerns the target T2, GABABR1a-SD1 (SD1-FITC-9mer complex) (Homo sapiens, UniProt Q9UBS5).
T2 construct: The synthetic gene encoding for residues 26-96 of the Sushi1 protein was cloned into a pFloat-SUMO vector; His-SUMO (with 3C protease site) (N, cleaved yes); made in house; host or cells: E. coli BL21(DE3)
Briefly: Fluorescence polarization (FP) competition assay with FITC-9mer. It counts as binding. The note with it: competition with FITC-9mer for SD1. The protocol:
Intrigued by the surprising results of the 5-mer, it was decided to set up a medium- to high-throughput screen to optimize the 5-mer sequence. Several assays were tested to find a reproducible, robust and cost-effective assay that is also suitable for high-throughput screening. A fluorescence polarization (FP) assay was selected. FP measurements are well-known for receptor binding assays. The assay is based on the rotational movement of fluorescently labelled molecules in solution. […] The FP assay was optimized using the FITC labelled sAPP 9-mer (FIG. 1).
as §1, §2
`CC[C@H](C)[C@H](NC(=O)[C@H](N)CC(=O)O)C(=O)N[C@@H](Cc1ccc(O)cc1)C(=O)N[C@@H](Cc1ccc(O)cc1)C(=O)N[C@@H](CO)C(=O)O` [VIB-0068914, dIYYS] (H-[dD]IYYS-OH; N-terminus and C-terminus assumed) had an IC50 of 25.1 µM.

With `CC[C@H](C)[C@H](NC(=O)[C@H](N)CC(=O)O)C(=O)N[C@@H](Cc1ccc(O)cc1)C(=O)N[C@@H](Cc1c[nH]c2ccccc12)C(=O)N[C@@H](CO)C(=O)O` [VIB-0068902, dIYWS], the IC50 is 11.6 µM.

The test is the same for the next values; noted with them: peptide at 50 μM; inhibition of FITC-9mer binding to SD1.
Regarding `CC[C@H](C)[C@H](NC(=O)[C@H](N)CC(=O)O)C(=O)N[C@@H](Cc1ccc(O)cc1)C(=O)N[C@@H](Cc1ccc(O)cc1)C(=O)N[C@@H](CO)C(=O)O` [VIB-0068914, dIYYS] (H-[dD]IYYS-OH; N-terminus and C-terminus assumed), the inhibition at 50 µM was determined as 72.4%.

Consider `CC[C@H](C)[C@H](NC(=O)[C@H](N)CC(=O)O)C(=O)N[C@@H](Cc1ccc(O)cc1)C(=O)N[C@@H](Cc1c[nH]c2ccccc12)C(=O)N[C@@H](CO)C(=O)NCC(=O)N1CCN(C)CC1` [VIB-0068875] (H-[dD]IYWSG-{Piperazinyl(4-Me)}; N-terminus assumed), for which the inhibition at 50 µM was 41.8%.

Consider `CC[C@H](C)[C@H](NC(=O)[C@@H](CC(=O)O)NC(=O)C1(N)CCC1)C(=O)N[C@@H](Cc1ccc(O)cc1)C(=O)N[C@@H](Cc1c[nH]c2ccccc12)C(=O)N[C@@H](CO)C(=O)O` [VIB-0068884] (H-[Ac4c][dD]IYWS-OH; C-terminus assumed), for which the inhibition at 50 µM was determined as 41.5%.

With `CC[C@H](C)[C@H](NC(=O)[C@H](N)CC(=O)O)C(=O)N[C@@H](Cc1ccc(OC)c(C)c1)C(=O)N[C@@H](Cc1c[nH]c2ccccc12)C(=O)N[C@@H](CO)C(=O)O` [VIB-0068906] (H-[dD]I[X3]WS-OH; N-terminus and C-terminus assumed), the inhibition at 50 µM came to 70.8%.

In the case of `CC[C@H](C)[C@H](NC(=O)[C@H](N)CC(=O)O)C(=O)N[C@@H](Cc1cn(CC)c2ccccc12)C(=O)N[C@@H](Cc1c[nH]c2ccccc12)C(=O)N[C@@H](CO)C(=O)O` [VIB-0068904] (H-[dD]I[X1]WS-OH; N-terminus and C-terminus assumed), the inhibition at 50 µM is 26.7%.

As for `CC[C@H](C)[C@H](NC(=O)[C@H](N)CC(=O)O)C(=O)N[C@@H](Cc1ccc(O)cc1)C(=O)N[C@@H](Cc1c[nH]c2ccccc12)C(=O)N[C@@H](CO)C(=O)O` [VIB-0068902, dIYWS], the inhibition at 50 µM came out at 76.8%.

For `CC[C@H](C)[C@H](NC(=O)[C@H](N)CC(=O)O)C(=O)N[C@@H](Cc1ccc(O)cc1)C(=O)N[C@@H](Cc1c[nH]c2ccccc12)C(=O)N[C@@H](CO)C(=O)Nc1nncs1` [VIB-0068870], the inhibition at 50 µM was determined as 34.6%.

With `CC[C@H](C)[C@H](NC(=O)[C@H](N)CC(=O)O)C(=O)N[C@@H](Cc1ccc(CO)cc1)C(=O)N[C@@H](Cc1c[nH]c2ccccc12)C(=O)N[C@@H](CO)C(=O)O` [VIB-0068896] (H-[dD]I[X4]WS-OH; N-terminus and C-terminus assumed), the inhibition at 50 µM came out at 56.6%.

With `CC[C@H](C)[C@H](NC(=O)[C@H](N)CC(=O)O)C(=O)N[C@@H](Cc1ccc(Cl)cc1)C(=O)N[C@@H](Cc1c[nH]c2ccccc12)C(=O)N[C@@H](CO)C(=O)O` [VIB-0068912], the inhibition at 50 µM was found to be 66.2%.

Consider `CC[C@H](C)[C@H](NC(=O)[C@H](N)CC(=O)O)C(=O)N[C@@H](Cc1ccc(N)cc1)C(=O)N[C@@H](Cc1c[nH]c2ccccc12)C(=O)N[C@@H](CO)C(=O)O` [VIB-0068909], for which the inhibition at 50 µM came out at 44.2%.

Take PVHMS [VIB_P44]: the inhibition at 50 µM is -7%.

With `CC[C@H](C)[C@H](NC(=O)[C@H](N)CC(=O)O)C(=O)N[C@@H](Cc1cccc(C(=O)O)c1)C(=O)N[C@@H](Cc1c[nH]c2ccccc12)C(=O)N[C@@H](CO)C(=O)O` [VIB-0068908], the inhibition at 50 µM worked out at 53.1%.
